Tests used:
[1] = greater than human calcitonin; ref Epand et al., 1983; Lee et al., 2011; Andreassen et al., 2014; cited from earlier work
From the text: Despite the risk of immunogenicity, SCT is preferred for therapeutic use over human calcitonin due to its 50-fold greater potency in vivo. Increased potency is attributed to the ability of the peptide to adopt an α-helical structure and bind to the human calcitonin receptor with a greater, and nearly irreversible, affinity relative to the human homolog ([Epand et al., 1983]; [Lee et al., 2011]; [Andreassen et al., 2014]).

[2] = of those who develop ADAs; ref LEVY et al., 1988; Grauer et al., 1995; cited from earlier work
From the text: In this case study, we describe an exercise to assess the immunogenicity risk of generic peptide impurities that were identified in salmon calcitonin (SCT). SCT is a peptide drug currently under development for the generic market by several manufacturers. Salmon calcitonin is a 32-amino acid peptide drug approved in the United States for the treatment of postmenopausal osteoporosis, Paget’s disease, and hypercalcemia. Salmon calcitonin shares only 50% amino acid sequence homology with human calcitonin (Figure 1), and despite its therapeutic benefits, in clinical trials, 40%–70% of patients tre ...

human donor PBMCs = assay: In vitro immunogenicity protocol (IVIP) naïve T-cell assay, IFNγ FluoroSpot; type: cell-based; settings: individual full-length peptides at 20 μg/mL, 14 days, then 48 h IFNγ FluoroSpot; 16 donors; positive: SFC > 50 per 10^6, SI ≥ 2, p < 0.05 vs medium
Procedure: To improve the sensitivity of the T-cell assays, fresh (not frozen) blood samples were obtained from human blood donors for the T-cell assays (internal observations). Specifically, PBMCs were isolated from leukocyte reduction filters obtained from the Rhode Island Blood Center (RIBC) in Providence, RI. To confirm the sufficient breadth of HLA coverage in the donor cohort, high-resolution (4-digit) class II HLA haplotyping of donors was performed at the Transplant Immunology Laboratory at Hartford Hospital in Hartford, CT, using the sequence-specific oligonucleotide method (SSP-PCR). […] supertype alleles were expressed by the donor PBMCs used in the assays reported here (HLA DRB1*0301, *0401, *0701, *1101, *1301, and *1501). The HLA identified for the cohort of subjects used in this study is representative of 81.81% of the HLA alleles expressed by the global population. Forty percent of the donors were female and 60% of the donors were male, and their ages ranged from 17 to 83 years. Donor cohort demographic information and HLA types for each donor are provided in Supplementary Figure S1. To measure the naïve T-cell response to salmon calcitonin and impurity peptides, cells were plated at a density of 2.5 × 10^5 cells per well in 96-well U-bottom cell plates in RPMI 1640 cell culture medium supplemented with IL-2 (10 ng/mL) and IL-7 (20 ng/mL) (Gibco). The cells were incubated with […]®, or a synthetic salmon calcitonin peptide, or individual peptide impurities, at a concentration of 20 μg/mL for 14 days at 37°C/5% CO2, with medium exchanges that include cytokine support (IL-2 and IL-7) on days 4, 7, and 11. A concentration of 20 μg/mL (5.8 μM) was the dose selected for the SCT API and the four selected impurities, following a dose-ranging study performed with […]® to determine the maximum dose at which a T-cell response could be observed with no observed toxicity to the cells. The dose-ranging study was performed following the same protocol as described above. The following control antigens were used in the T-cell assays for each of the PBMC samples: positive controls, keyhole limpet hemocyanin (KLH; Thermo Fisher), and the antigenic peptide pool CEFT (ImmunoSpot). In addition, human serum albumin (HSA; Sigma-Aldrich) was used as a negative control antigen, and phytohemagglutinin (PHA; Thermo Fisher), a T-cell mitogen, was used to confirm T-cell functionality. […] Responses were considered positive if (1) the number of spots was at least twice the background (stimulation index [SI] ≥ 2); (2) there were greater than 50 spot-forming cells (SFCs) per 1.0 × 10^6 PBMCs; and (3) responses were statistically different from the media (Student's t-test). Each of the test articles (SCT API, RLD, or impurity peptide) and each of the positive and negative controls were evaluated in nine replicate wells containing donor PBMCs. Following the 14-day incubation, cells in the nine replicate wells were collected, pooled by the treatment condition, and re-plated in triplicate on a precoated anti-human IFNγ FluoroSpot plate (Mabtech) at a concentration of 1.0 × 10^5 cells per well in the presence of an appropriate test article or control reagent in supplemented RPMI 1640 culture medium. The FluoroSpot plates were incubated for 48 h at 37°C/5% CO2. After 48 h, FluoroSpot plates were developed according to the manufacturer's directions. Spots were counted on an iSpot Spectrum FluoroSpot reading system (AID, Strassberg, Germany) using software 7.0, build 14790. Fluorophore-specific spot parameters were defined using the spot size, spot intensity, and spot gradient. A spot separation algorithm was applied for optimal spot detection. Analysis and counting of spots were performed by unbiased experts at ZellNet Consulting, Inc. (Fort Lee, NJ).

## CSNLSTCVLGKLSQELHKLQTYPRTNTGSGTP (disulfide) [SCT API, salmon calcitonin, 32-amino acid peptide drug, disulfide Cys1-Cys7, C-terminus amidated]
[1]
  potency in vivo relative to human calcitonin: 50 fold
[2]
  patients with ADAs who develop neutralizing anti-SCT antibodies (NADAs): more than 60%
Human donor PBMCs
  Percentage of Responding Donors: 44%
  Responding Donors: 7

From publication PMC11341359, “Assessing the immunogenicity risk of salmon calcitonin peptide impurities using in silico and in vitro methods” (Frontiers in Pharmacology, 2024)
